{
  "source": "patent US6013258A",
  "about": "“Immunogenic peptides from the HPV E7 protein” (priority 1997, dated 2000)",
  "molecular_target": "T1, recombinant HLA-A2 (Homo sapiens, UniProt P04439, D140Y/D185E/D98H/E176V/E277Q/G131W/G231S/I119V/I121R/I166T/I218V/N151K/N90K/P208A/P217A/Q86G/Q94H/R138H/R169H)",
  "T1 construct": "made in house; host or cells: E. coli",
  "type": "binding",
  "conditions": "peptide-HLA-A2 complex, monitored by circular dichroism",
  "data": [
    {"substance": "A2.2: peptide derived from HPV strain 16 E7 protein, SEQ ID NO:17 (YMLDLQPET) [Peptide A2.2]", "values": [
      {"measurement": "Tm (temperature at which 50% of the refolded complexes are melted)", "result": 52.5, "unit": "degrees Celsius"}
    ]}
  ]
}
